We go through 13 molecules from US20150344570A1 (published 2015).

In assay [1] the target is T1, FcγRIIa H (FcγRIIa type H, His at position 131), extracellular domain with C-terminal His tag (human, UniProt P12318 34-217).
T1 construct: extracellular domain; expressed in FreeStyle293 cells; also called FcgRIIa H; 2aH; not shown: His tag attached to the C terminus
T1 sequence (looked up): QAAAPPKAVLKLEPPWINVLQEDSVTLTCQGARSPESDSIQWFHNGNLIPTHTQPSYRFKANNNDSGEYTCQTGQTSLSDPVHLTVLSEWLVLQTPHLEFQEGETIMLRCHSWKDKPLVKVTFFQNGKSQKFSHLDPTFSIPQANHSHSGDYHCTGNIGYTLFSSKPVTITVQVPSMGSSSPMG
Briefly: SPR (Biacore), antibody captured on antigen peptide chip, FcγR as analyte; relative to GpH7-A5/GpH7-B3/GpL16-k0 = 100. A general note: SPR reads the build-up and loss of mass on a sensor chip optically.

Assay [2] deals with T2, FcγRIIb, extracellular domain with C-terminal His tag (human, UniProt P31994 43-217).
T2 construct: extracellular domain; expressed in FreeStyle293 cells; also called FcgRIIb; 2b; not shown: His tag attached to the C terminus
T2 sequence (looked up): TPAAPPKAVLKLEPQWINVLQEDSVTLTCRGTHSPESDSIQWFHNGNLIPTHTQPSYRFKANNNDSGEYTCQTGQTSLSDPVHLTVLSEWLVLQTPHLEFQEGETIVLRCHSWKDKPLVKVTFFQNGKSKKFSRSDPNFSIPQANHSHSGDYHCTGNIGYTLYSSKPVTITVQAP
The assay is described as above.

Assay [3] deals with T1, FcγRIIa H (FcγRIIa type H, His at …). As to the kind of experiment: SPR (Biacore); He/Con_2aH divided by He/Con_2b (FcγRIIa H against FcγRIIb).
Assay [4] deals with T3, FcγRIIIa (human, UniProt P08637 17-208).
T3 construct: extracellular domain; Soluble extracellular domain with a C-terminal His tag; also called FcgRIIIa; 3a; not shown: His tag attached to the C terminus
T3 sequence (P08637 17-208): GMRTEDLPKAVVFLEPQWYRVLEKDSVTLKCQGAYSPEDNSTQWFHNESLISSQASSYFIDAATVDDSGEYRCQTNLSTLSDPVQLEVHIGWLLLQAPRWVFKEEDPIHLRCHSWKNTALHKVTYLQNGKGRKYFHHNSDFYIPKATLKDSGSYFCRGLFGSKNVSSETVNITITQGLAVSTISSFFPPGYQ
Briefly: SPR; He/Con_3a (FcγRIIIa) divided by He/Con_2b (FcγRIIb).

Another assay concerns the target T4, FcγRIIb (human, UniProt P31994 43-217).
T4 construct: extracellular domain; Soluble extracellular domain with a C-terminal His tag, expressed in FreeStyle293 cells; also called FcgRIIb; 2b; not shown: His tag attached to the C terminus
T4 sequence (looked up): T2 sequence (looked up)
As to the kind of experiment: SPR (Biacore), antibody captured on chip, FcγR as analyte.

The target in assay [5] is T3, FcγRIIIa. Described as above.

B1: GpH7-A5/GpH7-B3 variant V266_15Y/GpL16-k0 (antibody, human IgG1, kappa)
heavy 1: not shown
heavy 2: not shown
light: DIVMTQSPLSLPVTPGEPASISCQASESLVHSNRNTYLHWYLQKPGQSPQLLIYKVSNRFSGVPDRFSGSGSGTDFTLKISRVEAEDVGVYYCSQNTHVPPTFGQGTKVEIERTVAAPSVFIFPPSDEQLKSGTASVVCLLNNFYPREAKVQWKVDNALQSGNSQESVTEQDSKDSTYSLSSTLTLSKADYEKHKVYACEVTHQGLSSPVTKSFNRGEC
notes: Heterodimerized antibody (He Ab): mutation in the GpH7-B3 chain only; also called He Ab
Regarding B1, the “He/Con_2aH (relative binding activity)” value in assay [1] is 18.1 % of HeCon Ab (= 100). Besides, the “He/Con_2b (relative binding activity)” value in assay [2] is 49.4 % of HeCon Ab (= 100). In assay [3], the “He_2aH/2b (IIaH/IIb)” value is 0.37 ratio.

B2: GpH7-A5/GpH7-B3 variant P238_03V/GpL16-k0 (antibody, human IgG1, kappa)
heavy 1: not shown
heavy 2: not shown
light: B1 light
notes: Heterodimerized anti-glypican-3 IgG1; the mutation is in the GpH7-B3 chain only; also called He Ab
Take B2: the “He_3a/2b (IIIa/IIb)” value with FcγRIIIa [4] was 0.36 ratio. Moreover, in the assay with FcγRIIb, the He/Con_2b was 120 relative binding, GpH7-A5/GpH7-B3/GpL16-k0 = 100. In addition, in the assay with FcγRIIIa [5], the He/Con_3a is 43.8 relative binding, GpH7-A5/GpH7-B3/GpL16-k0 = 100.

B3: GpH7-A5/GpH7-B3 variant P238_16H/GpL16-k0 (antibody, human IgG1, kappa)
heavy 1: not shown
heavy 2: not shown
light: B1 light
notes: as for B2
Regarding B3, the “He_3a/2b (IIIa/IIb)” value with FcγRIIIa [4] came to 0.27 ratio. In addition, in the assay with FcγRIIb, the He/Con_2b was 115 relative binding, GpH7-A5/GpH7-B3/GpL16-k0 = 100. Also, the He/Con_3a with FcγRIIIa [5] was 30.7 relative binding, GpH7-A5/GpH7-B3/GpL16-k0 = 100.

B4: GpH7-A5/GpH7-B3 variant P238_12R/GpL16-k0 (antibody, human IgG1, kappa)
heavy 1: not shown
heavy 2: not shown
light: B1 light
notes: as for B2
In the case of B4, the “He_3a/2b (IIIa/IIb)” value with FcγRIIIa [4] worked out at 0.24 ratio. The He/Con_2b with FcγRIIb is 51.4 relative binding, GpH7-A5/GpH7-B3/GpL16-k0 = 100. Besides, the He/Con_3a with FcγRIIIa [5] is 12.2 relative binding, GpH7-A5/GpH7-B3/GpL16-k0 = 100.

B5: GpH7-A5/GpH7-B3 variant S239_12R/GpL16-k0 (antibody, human IgG1, kappa)
heavy 1: not shown
heavy 2: not shown
light: B1 light
notes: as for B2
As for B5, the “He_3a/2b (IIIa/IIb)” value with FcγRIIIa [4] turned out to be 0.44 ratio. The He/Con_2b with FcγRIIb was 39.1 relative binding, GpH7-A5/GpH7-B3/GpL16-k0 = 100. Further, the He/Con_3a with FcγRIIIa [5] was 17 relative binding, GpH7-A5/GpH7-B3/GpL16-k0 = 100.

B6: GpH7-A5/GpH7-B3 variant D265_01G/GpL16-k0 (antibody, human IgG1, kappa)
heavy 1: not shown
heavy 2: not shown
light: B1 light
notes: as for B2
Consider B6, for which the “He_3a/2b (IIIa/IIb)” value in the assay with FcγRIIIa [4] was 0.28 ratio. The He/Con_2b with FcγRIIb was 16.1 relative binding, GpH7-A5/GpH7-B3/GpL16-k0 = 100. In the assay with FcγRIIIa [5], the He/Con_3a was 4.5 relative binding, GpH7-A5/GpH7-B3/GpL16-k0 = 100.

B7: GpH7-A5/GpH7-B3 variant S239_05P/GpL16-k0 (antibody, human IgG1, kappa)
heavy 1: not shown
heavy 2: not shown
light: B1 light
notes: as for B2
In the case of B7, in the assay with FcγRIIIa [4], the “He_3a/2b (IIIa/IIb)” value was 0.15 ratio. In addition, in the assay with FcγRIIb, the He/Con_2b is 102 relative binding, GpH7-A5/GpH7-B3/GpL16-k0 = 100. For the same molecule, in the assay with FcγRIIIa [5], the He/Con_3a was 14.9 relative binding, GpH7-A5/GpH7-B3/GpL16-k0 = 100.

B8: GpH7-A5/GpH7-B3 variant P238_13S/GpL16-k0 (antibody, human IgG1, kappa)
heavy 1: not shown
heavy 2: not shown
light: B1 light
notes: as for B2
In the case of B8, the “He_3a/2b (IIIa/IIb)” value with FcγRIIIa [4] came to 0.64 ratio. Further, in the assay with FcγRIIb, the He/Con_2b was 70.4 relative binding, GpH7-A5/GpH7-B3/GpL16-k0 = 100. Also, in the assay with FcγRIIIa [5], the He/Con_3a was 44.9 relative binding, GpH7-A5/GpH7-B3/GpL16-k0 = 100.

B9: GpH7-A5/GpH7-B3 variant P238_18N/GpL16-k0 (antibody, human IgG1, kappa)
heavy 1: not shown
heavy 2: not shown
light: B1 light
notes: as for B2
Take B9: the “He_3a/2b (IIIa/IIb)” value in the assay with FcγRIIIa [4] was found to be 0.55 ratio. Moreover, the He/Con_2b in the assay with FcγRIIb was 73.2 relative binding, GpH7-A5/GpH7-B3/GpL16-k0 = 100. For the same molecule, the He/Con_3a in the assay with FcγRIIIa [5] is 40.4 relative binding, GpH7-A5/GpH7-B3/GpL16-k0 = 100.

B10: GpH7-A5/GpH7-B3 variant S239_11K/GpL16-k0 (antibody, human IgG1, kappa)
heavy 1: not shown
heavy 2: not shown
light: B1 light
notes: as for B2
With B10, the “He_3a/2b (IIIa/IIb)” value with FcγRIIIa [4] is 0.48 ratio. In the assay with FcγRIIb, the He/Con_2b was 24.7 relative binding, GpH7-A5/GpH7-B3/GpL16-k0 = 100. Also, the He/Con_3a with FcγRIIIa [5] was 11.9 relative binding, GpH7-A5/GpH7-B3/GpL16-k0 = 100.

B11: GpH7-A5/GpH7-B3 variant S239_03V/GpL16-k0 (antibody, human IgG1, kappa)
heavy 1: not shown
heavy 2: not shown
light: B1 light
notes: as for B2
In the case of B11, in the assay with FcγRIIIa [4], the “He_3a/2b (IIIa/IIb)” value worked out at 0.71 ratio. Further, in the assay with FcγRIIb, the He/Con_2b is 108 relative binding, GpH7-A5/GpH7-B3/GpL16-k0 = 100. The He/Con_3a in the assay with FcγRIIIa [5] was 76.6 relative binding, GpH7-A5/GpH7-B3/GpL16-k0 = 100.

B12: GpH7-A5/GpH7-B3 variant P238_09D/GpL16-k0 (antibody, human IgG1, kappa)
heavy 1: not shown
heavy 2: not shown
light: B1 light
notes: as for B2
Turning to B12, the “He_3a/2b (IIIa/IIb)” value with FcγRIIIa [4] came to 0.48 ratio. Also, the He/Con_2b in the assay with FcγRIIb is 221 relative binding, GpH7-A5/GpH7-B3/GpL16-k0 = 100. In addition, the He/Con_3a with FcγRIIIa [5] was 106 relative binding, GpH7-A5/GpH7-B3/GpL16-k0 = 100.

B13: GpH7-A5/GpH7-B3 variant P238_04F/GpL16-k0 (antibody, human IgG1, kappa)
heavy 1: not shown
heavy 2: not shown
light: B1 light
notes: as for B2
With B13, in the assay with FcγRIIIa [4], the “He_3a/2b (IIIa/IIb)” value came to 0.15 ratio. For the same molecule, the He/Con_2b with FcγRIIb is 312 relative binding, GpH7-A5/GpH7-B3/GpL16-k0 = 100. Also, the He/Con_3a with FcγRIIIa [5] is 46.7 relative binding, GpH7-A5/GpH7-B3/GpL16-k0 = 100.
